This test deals with thioredoxin (1–73) (E. coli, UniProt P0AA25 2-74 = thioredoxin). Kind of test: magic angle spinning solid-state NMR.
Sequence of thioredoxin (1–73) (P0AA25 2-74): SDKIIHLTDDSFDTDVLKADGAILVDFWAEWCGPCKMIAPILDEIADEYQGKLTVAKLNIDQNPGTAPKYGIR

B1: thioredoxin (74–108) (domain or fragment, E. coli, UniProt P0AA25 75-109, looked up)
chain: GIPTLLLFKNGEVAATKVGALSKGQLKEFLDANLA
As for B1, the binding result is “binds”.

Source of the values: paper PMC4890720 (Methods in molecular biology (Clifton, N.J.), 2012).
